Assay results published in the Human Domainome abundance scans (Beltran et al. 2025).
± gives the uncertainty stated by the source.

B1: POU domain, class 4, transcription factor 1, residues 266 to 347; numbered along this chain, Q01851 (parent)
chain: RELEAFAERFKQRRIKLGVTQADVGSALANLKIPGVGSLSQSTICRFESLTLSHNNMIALKPILQAWLEEAEGAQREKMNKP

Variants of: B1
Experiment: abundance fitness (aPCA) (normalised: wild type 0, dead -1); higher = more abundant; growth selection in yeast, the domain comes from the species named
Details: Homo sapiens

Abundance fitness, by site and new letter:
F47: A -1.03 ± 0.18, Q -1 ± 0.34, S -0.717 ± 0.14, T -0.822 ± 0.3, L -0.145 ± 0.063, E -0.819 ± 0.15, R -0.934 ± 0.12, Y -0.272 ± 0.12, C -0.969 ± 0.28, P -0.717 ± 0.19, I -0.917 ± 0.28, V -0.706 ± 0.095
T51: M -0.004 ± 0.044, P -0.877 ± 0.085, V -0.105 ± 0.038, N -0.042 ± 0.04, H 0.003 ± 0.036, F -0.406 ± 0.053, S 0.018 ± 0.031, D 0.034 ± 0.046, W -0.487 ± 0.065, I -0.205 ± 0.041, R -0.017 ± 0.035, A -0.015 ± 0.034, G -0.021 ± 0.039, Q 0.054 ± 0.038, K 0.015 ± 0.044, L -0.022 ± 0.031, E 0.032 ± 0.07, C -0.106 ± 0.048, Y -0.368 ± 0.05
K61: P -1.19 ± 0.36, C -0.012 ± 0.057, Q 0.018 ± 0.074, E -0.022 ± 0.056, G -0.305 ± 0.037, N -0.388 ± 0.08, F -0.349 ± 0.11, A -0.074 ± 0.043, V -0.105 ± 0.046, D -0.635 ± 0.15, M -0.1 ± 0.062, Y 0.007 ± 0.074, R -0.051 ± 0.04, S -0.149 ± 0.047, W -0.07 ± 0.052, H -0.265 ± 0.18, T -0.132 ± 0.053, L -0.198 ± 0.046, I 0.165 ± 0.25
R46: L -0.176 ± 0.05, N 0.047 ± 0.2, A 0.094 ± 0.047, C -0.117 ± 0.1, Y -0.307 ± 0.17, D 0.014 ± 0.11, S -0.009 ± 0.059, Q 0.042 ± 0.07, V -0.503 ± 0.071, K 0.005 ± 0.089, E 0.055 ± 0.061, G -0.038 ± 0.038, W -0.391 ± 0.067, I -0.971 ± 0.33, M 0.128 ± 0.084, P -0.576 ± 0.18, H -0.203 ± 0.17
I58: M -0.042 ± 0.074, T 0.033 ± 0.081, H -0.169 ± 0.17, W -0.107 ± 0.057, F -0.075 ± 0.088, V -0.035 ± 0.048, G -0.147 ± 0.045, C -0.094 ± 0.093, A 0.041 ± 0.053, L -0.031 ± 0.052, E -0.023 ± 0.069, Y -0.118 ± 0.23, S -0.013 ± 0.064, N 0.021 ± 0.1, D -0.167 ± 0.091
I44: S -0.68 ± 0.12, F -0.726 ± 0.2, L -0.153 ± 0.058, P -0.864 ± 0.22, T -0.751 ± 0.15, K -1.04 ± 0.24, Q -0.989 ± 0.34, V 0.029 ± 0.044, R -0.999 ± 0.12, M -0.437 ± 0.086, Y -1.01 ± 0.42, G -1 ± 0.093, W -0.827 ± 0.12, N -0.516 ± 0.23
A59: F 0 ± 0.095, S -0.016 ± 0.05, T -0.011 ± 0.061, L -0.027 ± 0.05, M 0.009 ± 0.067, P -0.368 ± 0.1, V 0.011 ± 0.04, E -0.026 ± 0.044, R -0.051 ± 0.037, Q 0.056 ± 0.071, H 0.227 ± 0.19, K 0.035 ± 0.079, W -0.198 ± 0.05, G -0.103 ± 0.037, D -0.052 ± 0.069, N -0.278 ± 0.2, C -0.054 ± 0.063, I -0.021 ± 0.12, Y -0.072 ± 0.12
H54: W -0.014 ± 0.04, A 0.01 ± 0.038, D -0.039 ± 0.061, L 0.046 ± 0.04, F -0.02 ± 0.1, E 0.058 ± 0.047, N -0.075 ± 0.084, Y 0.057 ± 0.088, S 0.057 ± 0.043, I 0.091 ± 0.1, C -0.089 ± 0.059, T 0.08 ± 0.052, R 0.053 ± 0.029, M 0.044 ± 0.052, Q -0.02 ± 0.055, K 0.007 ± 0.066, P 0.041 ± 0.045
C45: P -0.18 ± 0.075, E 0.06 ± 0.046, G -0.037 ± 0.031, H 0.089 ± 0.12, S 0.079 ± 0.047, D -0.139 ± 0.09, R 0.056 ± 0.04, I -0.001 ± 0.09, M 0.03 ± 0.08, K 0.035 ± 0.058, N -0.084 ± 0.17, A 0.057 ± 0.043, T 0.11 ± 0.068, W -0.076 ± 0.048, F -0.108 ± 0.097, Y -0.037 ± 0.1, L -0.073 ± 0.05
L60: I -0.303 ± 0.23, C 0.074 ± 0.17, T -0.452 ± 0.31, V -0.029 ± 0.087, W -0.605 ± 0.2, S -0.253 ± 0.23, E -0.581 ± 0.26, A -0.344 ± 0.24, H -0.392 ± 0.29, G -0.696 ± 0.48, F -0.355 ± 0.23, N -0.223 ± 0.26
E48: T -0.954 ± 0.08, D -1 ± 0.09, I -1.28 ± 0.17, P -0.856 ± 0.076, W -0.811 ± 0.078, V -1.04 ± 0.072, M -1.23 ± 0.19, K -0.823 ± 0.091, Y -1.05 ± 0.12, C -1.27 ± 0.18, H -1.12 ± 0.12, S -0.979 ± 0.063, A -1.1 ± 0.094, N -0.973 ± 0.11
S49: Q 0.052 ± 0.043, A -0.004 ± 0.031, V -0.654 ± 0.046, M -0.101 ± 0.037, R -0.073 ± 0.029, N 0.061 ± 0.045, C -0.082 ± 0.037, T 0.001 ± 0.035, Y -0.396 ± 0.044, H -0.062 ± 0.039, F -0.632 ± 0.065, E 0.045 ± 0.039, L -0.181 ± 0.03, G -0.002 ± 0.029, W -0.541 ± 0.053, I -0.573 ± 0.063
N55: W -0.023 ± 0.062, A 0.023 ± 0.041, F -0.18 ± 0.12, R 0.045 ± 0.039, D -0.094 ± 0.1, I -0.093 ± 0.14, T 0.034 ± 0.067, G 0.044 ± 0.041, V -0.051 ± 0.043, L -0.016 ± 0.052, H -0.06 ± 0.096, P 0.104 ± 0.074, C -0.036 ± 0.13, K -0.038 ± 0.074
N56: T -0.029 ± 0.081, P -0.301 ± 0.094, F -0.136 ± 0.14, K 0.015 ± 0.069, V 0.066 ± 0.04, S 0.046 ± 0.052, C 0.145 ± 0.092, H 0.004 ± 0.091, L 0.058 ± 0.042, G -0.023 ± 0.033, I -0.049 ± 0.098, E 0.032 ± 0.044, Q 0.083 ± 0.063, M 0.078 ± 0.075, W -0.062 ± 0.049, A 0.055 ± 0.046, Y 0.23 ± 0.24, D -0.018 ± 0.075
L50: Q -0.01 ± 0.056, H 0.044 ± 0.045, D -0.425 ± 0.053, W -0.233 ± 0.052, R 0.012 ± 0.036, G 0.049 ± 0.038, S 0.018 ± 0.033, M 0.055 ± 0.045, C 0.095 ± 0.046, A 0.031 ± 0.032, I -0.13 ± 0.043, K 0.029 ± 0.049, T -0.062 ± 0.039, Y 0.008 ± 0.04, F 0.052 ± 0.042, V -0.006 ± 0.033, E -0.26 ± 0.057, N -0.032 ± 0.04
M57: D -0.935 ± 0.31, C -0.268 ± 0.11, N -0.19 ± 0.17, T -0.374 ± 0.062, E -0.706 ± 0.085, L -0.031 ± 0.037, S -0.309 ± 0.053, K -0.901 ± 0.15, Q -0.197 ± 0.064, P -0.606 ± 0.11, R -0.775 ± 0.058, W -0.289 ± 0.049, A -0.132 ± 0.047, F -0.309 ± 0.16, I -0.16 ± 0.099, G -0.449 ± 0.04, V -0.273 ± 0.041, H -0.399 ± 0.16
P62: G -0.2 ± 0.039, R -0.347 ± 0.043, A -0.366 ± 0.053, L -0.524 ± 0.066, M -0.687 ± 0.1, S -0.243 ± 0.069, Y -0.562 ± 0.21, D -0.188 ± 0.077, I -0.816 ± 0.25, F -0.518 ± 0.11, N -0.286 ± 0.13, K -0.243 ± 0.077, T -0.192 ± 0.07, Q -0.393 ± 0.092, V -0.485 ± 0.057, E -0.413 ± 0.067, C -0.429 ± 0.082
S53: P 0.02 ± 0.055, D -0.136 ± 0.075, Y -0.131 ± 0.19, C 0.004 ± 0.089, W -0.533 ± 0.094, Q -0.013 ± 0.07, K -0.269 ± 0.073, G -0.039 ± 0.038, A -0.039 ± 0.043, I -0.173 ± 0.31, N -0.114 ± 0.1, T -0.174 ± 0.064, L -0.518 ± 0.094, M -0.419 ± 0.076, R -0.139 ± 0.04, V -0.389 ± 0.055, F -0.903 ± 0.23
I63: E -0.295 ± 0.08, C -0.028 ± 0.075, S -0.204 ± 0.068, G -0.274 ± 0.041, M -0.168 ± 0.078, T 0.034 ± 0.08, R -0.154 ± 0.04, P -0.203 ± 0.081, N -0.17 ± 0.11, L -0.113 ± 0.061, D -0.41 ± 0.1, F 0.027 ± 0.15, K -0.137 ± 0.07, V 0.002 ± 0.046, Q -0.247 ± 0.075
L52: I -0.496 ± 0.29, R -0.986 ± 0.084, Y -0.701 ± 0.26, H -0.234 ± 0.2, C -0.351 ± 0.079, T -0.472 ± 0.064, K -1.28 ± 0.27, D -0.229 ± 0.084, W -0.546 ± 0.071, F -0.24 ± 0.47, V -0.588 ± 0.07, E -0.132 ± 0.052, S -0.557 ± 0.067
L64: D -0.652 ± 0.36, F -0.337 ± 0.34, E -0.709 ± 0.12, G -0.672 ± 0.065, A -0.513 ± 0.07, I -0.339 ± 0.26, P -0.711 ± 0.24, Q -0.533 ± 0.18, M -0.323 ± 0.12, C -0.499 ± 0.14, T -0.76 ± 0.15, S -0.793 ± 0.12, N -0.431 ± 0.21
